The record followed here is the Immune Epitope Database (IEDB).

Test [1] deals with HLA-C*06:02. In words: IEDB peptide-MHC binding, purified MHC/direct/fluorescence; filed as Kd, often an IC50 or EC50 that approximates it; ≥ and ≤ were set here for values at or beyond the usual limits of such assays.
In test [2] the target is HLA-C*14:02. The test is described as above. As to conditions: source organism: Human immunodeficiency virus 1.
In test [3] the target is HLA-C*15:02. Described as above. The note with it: source organism: Human immunodeficiency virus 1.
In test [4] the target is HLA-A*02:01. The description is as above.
Test [5] addresses HLA-A*24:03. The test is described as above. As to conditions: source organism: Mycobacterium tuberculosis str. Haarlem.
Test [6] deals with HLA-B*35:01. Described as above. As to conditions: source organism: Mycobacterium tuberculosis str. Haarlem.
Test [7] addresses HLA-A*02:19. The test is described as above. The note with it: source organism: Mycobacterium tuberculosis str. Haarlem.
The target of test [8] is HLA-B*51:01. The description is as above. As to conditions: source organism: Mycobacterium tuberculosis str. Haarlem.
For test [9], the target named is HLA-B*07:02. The test is described as above.
Test [10] addresses HLA-B*57:01. The description is as above.
In test [11] the target is HLA-A*29:02. Described as above. As to conditions: source organism: Mycobacterium tuberculosis str. Haarlem.
Test [12] deals with HLA-A*02:03. Described as above. As to conditions: source organism: Mycobacterium tuberculosis str. Haarlem.
Test [13] addresses HLA-B*15:01. The test is described as above.
Test [14] addresses HLA-A*03:01. The test is described as above. The note with it: source organism: Mycobacterium tuberculosis str. Haarlem.
The target in test [15] is HLA-A*02:16. Described as above. The note with it: source organism: Mycobacterium tuberculosis str. Haarlem.
For test [16], the target named is HLA-A*02:12. The description is as above. The note with it: source organism: Mycobacterium tuberculosis str. Haarlem.
For test [17], the target named is HLA-B*27:03. Described as above. The note with it: source organism: Mycobacterium tuberculosis str. Haarlem.
In test [18] the target is HLA-B*39:01. Described as above. As to conditions: source organism: Mycobacterium tuberculosis str. Haarlem.
Test [19] has as its target HLA-B*18:01. The description is as above.
For test [20], the target named is HLA-A*02:11. The description is as above. The note with it: source organism: Mycobacterium tuberculosis str. Haarlem.
For test [21], the target named is HLA-B*46:01. The test is described as above.
Test [22] addresses HLA-A*26:01. The description is as above. The note with it: source organism: Mycobacterium tuberculosis str. Haarlem.
Test [23] has as its target HLA-B*48:01. Described as above.
Test [24] deals with HLA-B*58:01. Described as above. The note with it: source organism: Mycobacterium tuberculosis.
Test [25] has as its target HLA-B*40:01. Described as above. The note with it: source organism: Mycobacterium tuberculosis.
The target in test [26] is HLA-A*11:01. Described as above. As to conditions: source organism: Mycobacterium tuberculosis.
The target in test [27] is HLA-A*01:01. The description is as above. As to conditions: source organism: Mycobacterium tuberculosis.
The target in test [28] is HLA-A*68:02. The description is as above. As to conditions: source organism: Mycobacterium tuberculosis.
Test [29] addresses HLA-A*31:01. The test is described as above. The note with it: source organism: Mycobacterium tuberculosis.
For test [30], the target named is HLA-B*27:05. The test is described as above.
For test [31], the target named is HLA-B*15:17. The description is as above. As to conditions: source organism: Mycobacterium tuberculosis.
Test [32] addresses HLA-A*26:03. Briefly: IEDB peptide-MHC binding, purified MHC/competitive/fluorescence; filed as Kd, often an IC50 or EC50 that approximates it; ≥ and ≤ were set here for values at or beyond the usual limits of such assays. The note with it: source organism: Mycobacterium tuberculosis C.
Test [33] deals with HLA-A*69:01. In words: IEDB peptide-MHC binding, purified MHC/direct/fluorescence; filed as Kd, often an IC50 or EC50 that approximates it; ≥ and ≤ were set here for values at or beyond the usual limits of such assays. As to conditions: source organism: Mycobacterium tuberculosis.
The target of test [34] is HLA-B*73:01. The test is described as above.
Test [35] addresses HLA-B*83:01. Briefly: IEDB peptide-MHC binding, purified MHC/competitive/fluorescence; filed as Kd, often an IC50 or EC50 that approximates it; ≥ and ≤ were set here for values at or beyond the usual limits of such assays. The note with it: source organism: Homo sapiens.
Test [36] deals with HLA-B*45:06. The test is described as above. The note with it: source organism: Homo sapiens.
The target in test [37] is HLA-B*15:42. The test is described as above. The note with it: source organism: Homo sapiens.
Setting [38] is: source organism: Mycobacterium tuberculosis str. Haarlem.
[39] abbreviates: source organism: Mycobacterium tuberculosis.
[40] abbreviates: source organism: Yersinia enterocolitica.

On to RMYSPVSIL, for which the Kd in [1] (source organism: Human immunodeficiency virus 1) was 3.11 µM; in test [2], 0.701 µM; in [3], 0.686 µM.

Take WASGVPAAT: the Kd is ≥ 20 µM in [4] (setting [38]); ≥ 20 µM in test [5]; 0.317 µM in test [6]; ≥ 20 µM in [7]; ≥ 20 µM in test [8]; 6.5 µM in test [9] (setting [38]). The Kd in [10] (setting [38]), in test [11], in test [12], in test [13] (setting [38]), in [14] and in test [15] was ≥ 20 µM each time. The Kd in test [16], in test [17], in test [18], in [19] (setting [38]), in test [20] and in [21] (setting [38]) was ≥ 20 µM throughout. Further, the Kd in test [22] is ≥ 20 µM.

In the case of QINELHHSK, the Kd in test [23] (setting [39]) was ≥ 20 µM; in test [4] (setting [39]), ≥ 20 µM; in test [24], ≥ 20 µM; in test [25] it was ≥ 20 µM; in [9] (setting [39]), ≥ 20 µM; in [26] it was 0.0685 µM. The Kd in [27] is ≥ 20 µM; in test [28], ≥ 20 µM; in test [10] (setting [39]), ≥ 20 µM; in test [13] (setting [39]), ≥ 20 µM; in test [29], 0.335 µM; in test [19] (setting [39]), ≥ 20 µM. The Kd in test [30] (setting [39]), in test [21] (setting [39]), in [31] and in test [32] was ≥ 20 µM throughout.

For YLYDETQDV, the Kd in [1] (source organism: Mycobacterium tuberculosis variant bovis BCG str. Pasteur 1173P2) amounted to 0.041 µM; in test [33], 1.24 µM; in test [12], 0.002 µM; in test [16], 0.006 µM.

On to YRLVSAVEK, for which the equilibrium dissociation constant (Kd) was ≥ 20 µM in test [23] (setting [40]), ≥ 20 µM in [34] (setting [40]) and 0.0299 µM in test [30] (setting [40]).

On to YEHYFVFAA, for which the Kd in test [34] (source organism: Homo sapiens) was 0.0226 µM; in [35] it was ≥ 5 µM; in test [36] it was 0.379 µM; in test [37], ≥ 5 µM.
